Experimental data: US20210198368A1 (Novartis, published 2021)
Values belong to the binder of their own block, whether it stands above or below them.

Target: T1, human CLL1 expressed on cancer cell lines HL60 and U937 (human, UniProt Q5QGZ9 1-265)
T1 sequence (looked up): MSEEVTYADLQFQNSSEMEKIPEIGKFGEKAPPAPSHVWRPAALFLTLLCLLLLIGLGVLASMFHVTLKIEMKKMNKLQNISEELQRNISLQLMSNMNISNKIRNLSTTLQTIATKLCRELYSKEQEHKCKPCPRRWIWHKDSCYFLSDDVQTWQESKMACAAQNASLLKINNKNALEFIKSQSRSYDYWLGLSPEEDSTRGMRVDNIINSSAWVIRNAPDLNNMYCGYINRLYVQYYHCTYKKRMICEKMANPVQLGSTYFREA
Test: cell-based or functional assay

EC50 (nM), NFAT U937 (T-cell activation, Jurkat NFAT luciferase reporter assay): 0.08 nM
B1: CD3 × CLL1_11 (bispecific antibody)
chain 1: QVQLVQSGGGVVQPGRSLRLSCKASGYTFTRYTMHWVRQAPGKGLEWIGYINPSRGYTNYNQKVKDRFTISRDNSKNTAFLQMDSLRPEDTGVYFCARYYDDHYSLDYWGQGTPVTVSSGGGGSGGGKSKKGGSGGGGSDIQMTQSPSSLSASVGDRVTITCSASSSVSYMNWYQQTPGKAPKRWIYDTSKLASGVPSRFSGSGSGTDYTFTISSLQPEDIATYYCQQWSSNPFTFGQGTKLQITGGGGSDKTHTCPPCPAPELLGGPSVFLFPPKPKDTLMISRTPEVTCVVVAVSHEDPEVKFNWYVDGVEVHNAKTKPREEQYNSTYRVVSVLTVLHQDWLNGKEYKCKVSNKALAAPIEKTISKAKGQPREPQVCTLPPSRDELTKNQVSLSCAVKGFYPSDIAVEWESNGQPENNYKTTPPVLDSDGSFFLVSKLTVDKSRWQQGNVFSCSVMHEALHNHYTQKSLSLSPGK
chain 2: EVQLVQSGGGVVRSGRSLRLSCAASGFTFNSYGLHWVRQAPGKGLEWVALIEYDGSNKYYGDSVKGRFTISRDKSKSTLYLQMDNLRAEDTAVYYCAREGNEDLAFDIWGQGTLVTVSSGGGGSGGGGSGGGGSGGGGSEIVLTQSPSSLSASVGDRVTITCQASQFIKKNLNWYQHKPGKAPKLLIYDASSLQTGVPSRFSGNRSGTTFSFTISSLQPEDVATYYCQQHDNLPLTFGGGTKVEIKGGGGSGSDKTHTCPPCPAPELLGGPSVFLFPPKPKDTLMISRTPEVTCVVVAVSHEDPEVKFNWYVDGVEVHNAKTKPREEQYNSTYRVVSVLTVLHQDWLNGKEYKCKVSNKALAAPIEKTISKAKGQPREPQVYTLPPCRDELTKNQVSLWCLVKGFYPSDIAVEWESNGQPENNYKTTPPVLDSDGSFFLYSKLTVDKSRWQQGNVFSCSVMHEALHNHYTQKSLSLSPGK
EC50 (nM), Killing HL60 (T-cell mediated killing of the CLL1-positive cancer cell line): 0.03 nM

EC50 (nM), NFAT U937 (T-cell activation, Jurkat NFAT luciferase reporter assay): 0.63 nM
B2: CD3 × CLL1_12 (bispecific antibody)
chain 1: B1 chain 1
chain 2: not shown
EC50 (nM), Killing HL60 (T-cell mediated killing of the CLL1-positive cancer cell line): 0.2 nM

EC50 (nM), NFAT U937 (T-cell activation, Jurkat NFAT luciferase reporter assay): 0.96 nM
B3: CD3 × CLL1_06 (bispecific antibody)
chain 1: B1 chain 1
chain 2: EVQLVESGGGLVKPGGSLRLSCAASGFTFSSYSMNWVRQAPGKGLEWVSSISSSSSYIYYADSVKGRFTISRDNAKNSLYLQMNSLRAEDTAVYYCARDPSSSGSYYMEDSYYYGMDVWGQGTTVTVSSGGGGSGGGGSGGGGSNFMLTQPHSVSESPGKTVTISCTGSSGSIASNYVQWYQQRPGSAPTTVIYEDNQRPSGVPDRFSGSIDSSSNSASLTISGLKTEDEADYYCQSYDSSNQVVFGGGTKLTVLGGGGSGSDKTHTCPPCPAPELLGGPSVFLFPPKPKDTLMISRTPEVTCVVVAVSHEDPEVKFNWYVDGVEVHNAKTKPREEQYNSTYRVVSVLTVLHQDWLNGKEYKCKVSNKALAAPIEKTISKAKGQPREPQVYTLPPCRDELTKNQVSLWCLVKGFYPSDIAVEWESNGQPENNYKTTPPVLDSDGSFFLYSKLTVDKSRWQQGNVFSCSVMHEALHNHYTQKSLSLSPGK
EC50 (nM), Killing HL60 (T-cell mediated killing of the CLL1-positive cancer cell line): 1.27 nM

EC50 (nM), NFAT U937 (T-cell activation, Jurkat NFAT luciferase reporter assay): 1.26 nM
B4: CD3 × CLL1_08 (bispecific antibody)
chain 1: B1 chain 1
chain 2: QVQLVESGGGLVQPGGSLRLSCAASGFTFSSYWMSWVRQAPGKGLEWVANINEDGSAKFYVDSVKGRFTISRDNAKNSLYLQMNSLRAEDTAVYFCARDLRSGRYWGQGTLVTVSSGGGGSGGGGSGGGGSEIVLTQSPGTLSLSPGGRATLSCRASQSISGSFLAWYQQKPGQAPRLLIYGASSRATGIPDRFSGSGSGTDFTLTISRLEPEDFAVYYCQQYGSSPPTFGLGTKLEIKGGGGSGSDKTHTCPPCPAPELLGGPSVFLFPPKPKDTLMISRTPEVTCVVVAVSHEDPEVKFNWYVDGVEVHNAKTKPREEQYNSTYRVVSVLTVLHQDWLNGKEYKCKVSNKALAAPIEKTISKAKGQPREPQVYTLPPCRDELTKNQVSLWCLVKGFYPSDIAVEWESNGQPENNYKTTPPVLDSDGSFFLYSKLTVDKSRWQQGNVFSCSVMHEALHNHYTQKSLSLSPGK
EC50 (nM), Killing HL60 (T-cell mediated killing of the CLL1-positive cancer cell line): 0.31 nM

B5: CD3 × CLL1_02 (bispecific antibody)
chain 1: B1 chain 1
chain 2: EVQLVESGGGVVQPGGSLRLSCAASGFTFDDYAMHWVRQAPGKGLEWVSLISGDGGSTYYADSVKGRFTISRDNSKNTLYLQMNSLRVEDTAVYYCARVFDSYYMDVWGKGTTVTVSSGGGGSGGGGSGSGGSEIVLTQSPLSLPVTPGQPASISCRSSQSLVYTDGNTYLNWFQQRPGQSPRRLIYKVSNRDSGVPDRFSGSGSDTDFTLKISRVEAEDVGIYYCMQGTHWSFTFGQGTRLEIKGGGGSDKTHTCPPCPAPELLGGPSVFLFPPKPKDTLMISRTPEVTCVVVAVSHEDPEVKFNWYVDGVEVHNAKTKPREEQYNSTYRVVSVLTVLHQDWLNGKEYKCKVSNKALAAPIEKTISKAKGQPREPQVYTLPPCRDELTKNQVSLWCLVKGFYPSDIAVEWESNGQPENNYKTTPPVLDSDGSFFLYSKLTVDKSRWQQGNVFSCSVMHEALHNHYTQKSLSLSPGK
EC50 (nM), Killing HL60 (T-cell mediated killing of the CLL1-positive cancer cell line): > 300 nM

EC50 (nM), NFAT U937 (T-cell activation, Jurkat NFAT luciferase reporter assay): 2.16 nM
B6: CD3 × CLL1_13 (bispecific antibody)
chain 1: B1 chain 1
chain 2: QVQLVQSGAEVKKSGASVKVSCKASGYPFTGYYIQWVRQAPGQGLEWMGWIDPNSGNTGYAQKFQGRVTMTRNTSISTAYMELSSLRSEDTAVYYCASDSYGYYYGMDVWGQGTLVTVSSGGGGSGGGGSGGGGSGGGGSDIQMTQSPSSLSASVGDRVTFTCRASQGISSALAWYQQKPGKPPKLLIYDASSLESGVPSRFSGSGSGTDFTLTISSLQPEDFATYYCQQFNNYPLTFGGGTKVEIKGGGGSGSDKTHTCPPCPAPELLGGPSVFLFPPKPKDTLMISRTPEVTCVVVAVSHEDPEVKFNWYVDGVEVHNAKTKPREEQYNSTYRVVSVLTVLHQDWLNGKEYKCKVSNKALAAPIEKTISKAKGQPREPQVYTLPPCRDELTKNQVSLWCLVKGFYPSDIAVEWESNGQPENNYKTTPPVLDSDGSFFLYSKLTVDKSRWQQGNVFSCSVMHEALHNHYTQKSLSLSPGK
EC50 (nM), Killing HL60 (T-cell mediated killing of the CLL1-positive cancer cell line): 4.24 nM

B7: CD3 × CLL1_07 (bispecific antibody)
chain 1: B1 chain 1
chain 2: QVQLVESGGGLVQPGGSLRLSCAASGFTFSSYWMSWVRQAPGKGLEWVANINEDGSAKFYVDSVKGRFTISRDNAKNSLYLQMNSLRAEDTAVYFCARDLRSGRYWGQGTLVTVSSGGGGSGGGGSGGGGSEIVLTQSPGTLSLSPGGRATLSCRASQSISGSFLAWYQQKPGQAPRLLIYGASSRATGIPDRFSGSGSGTDFTLTISRLEPEDFAVYYCQQYGSSPPTFGLGTKLEIKGGGGSDKTHTCPPCPAPELLGGPSVFLFPPKPKDTLMISRTPEVTCVVVAVSHEDPEVKFNWYVDGVEVHNAKTKPREEQYNSTYRVVSVLTVLHQDWLNGKEYKCKVSNKALAAPIEKTISKAKGQPREPQVYTLPPCRDELTKNQVSLWCLVKGFYPSDIAVEWESNGQPENNYKTTPPVLDSDGSFFLYSKLTVDKSRWQQGNVFSCSVMHEALHNHYTQKSLSLSPGK
EC50 (nM), Killing HL60 (T-cell mediated killing of the CLL1-positive cancer cell line): 44.3 nM

EC50 (nM), NFAT U937 (T-cell activation, Jurkat NFAT luciferase reporter assay): 1.74 nM
B8: CD3 × CLL1_09 (bispecific antibody)
chain 1: B1 chain 1
chain 2: QVQLVQSGAEVKEPGASVKVSCKAPANTFSDHVMHWVRQAPGQRFEWMGYIHAANGGTHYSQKFQDRVTITRDTSANTVYMDLSSLRSEDTAVYYCARGGYNSDAFDIWGQGTMVTVSSGGGGSGGGGSGGGGSGGGGSDIVMTQSPSSVSASVGDRVTITCRASQDISSWLAWYQQKPGKAPKLLIYAASSLQSGVPSRFNGSGSGTDFTLTISSLQPEDFATYYCQQSYSTPLTFGGGTKVEIKGGGGSGSDKTHTCPPCPAPELLGGPSVFLFPPKPKDTLMISRTPEVTCVVVAVSHEDPEVKFNWYVDGVEVHNAKTKPREEQYNSTYRVVSVLTVLHQDWLNGKEYKCKVSNKALAAPIEKTISKAKGQPREPQVYTLPPCRDELTKNQVSLWCLVKGFYPSDIAVEWESNGQPENNYKTTPPVLDSDGSFFLYSKLTVDKSRWQQGNVFSCSVMHEALHNHYTQKSLSLSPGK
EC50 (nM), Killing HL60 (T-cell mediated killing of the CLL1-positive cancer cell line): 0.36 nM

EC50 (nM), NFAT U937 (T-cell activation, Jurkat NFAT luciferase reporter assay): 0.85 nM
B9: CD3 × CLL1_10 (bispecific antibody)
chain 1: B1 chain 1
chain 2: QVQLVQSGGGLVQPGGSLRLSCAASGFTFSSYSMNWVRQAPGKGLEWVSYISSSSSTIYYADSVKGRFTISRDNAKNSLYLQMNSLRAEDTAVYYCARDLSVRAIDAFDIWGQGTMVTVSSGGGGSGGGGSGGGGSGGGGSDIVLTQSPSSLSASVGDRVTITCQASQDISNYLNWYQQKPGKAPKLLIYDASNLETGVPSRFSGSGSGTDFTFTISSLQPEDFATYYCQQAYSTPFTFGPGTKVEIKGGGGSGSDKTHTCPPCPAPELLGGPSVFLFPPKPKDTLMISRTPEVTCVVVAVSHEDPEVKFNWYVDGVEVHNAKTKPREEQYNSTYRVVSVLTVLHQDWLNGKEYKCKVSNKALAAPIEKTISKAKGQPREPQVYTLPPCRDELTKNQVSLWCLVKGFYPSDIAVEWESNGQPENNYKTTPPVLDSDGSFFLYSKLTVDKSRWQQGNVFSCSVMHEALHNHYTQKSLSLSPGK
EC50 (nM), Killing HL60 (T-cell mediated killing of the CLL1-positive cancer cell line): 0.27 nM
